According to the supplement of paper PMC7877785:
± gives the uncertainty stated by the source.

Test: self-splicing fitness, log relative to wild type (ln ratio); higher = more splicing; Tetrahymena group I intron in knt gene, E. coli kanamycin selection, DiMSum; sequences stand for … in CUCUCU…GGAGGGAAAAGUUAUCAGGCAUGCACCUGGUAGCUAGUCUUUAAACCAAUAGAUUGCAUCGGUUUAAAAGGCAAGACCGUCAAAUUGCGGGAAAGGGGUCAACAGCCGUUCAGUACCAAGUCUCAGGGGAAACUUUGAGAUGGCCUUGCAAAGGGUAUGGUAAUAAGCUGACGGACAUGGUCCUAACCACGCAGCCAAGUCCUAAGUCAACAGAUCUUCUGUUGAUAUGGAUGCAGUUCACAGACUAAAUGUCGGUCGGGGAAGAUGUAUUCUUCUCAUAAGAUAUAGUCGGACCUCUCCUUAAUGGGAGCUAGCGGAUGAAGUGAUGCAACACUGGAGCCGCUGGGAACUAAUUUGUAUGCGAAAGUAUAUUGAUUAGUUUUGGAGUACUCGUGGUCG
Method in brief: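 The eight P1ex-region nucleotides of an intron in the knt kanamycin-resistance gene on pET-22b(+) were all randomised and the library put into E. coli BL21(DE3). Six replicate transformations were grown overnight at 37°C or 30°C on LB agar with or without 25 μg/mL kanamycin, together with 100 μg/mL carbenicillin, 50 μM IPTG and 0.2% rhamnose. Colonies were pooled and amplicon-sequenced on an Illumina HiSeq 2500. Fitness from DiMSum is the error-weighted combination of wild-type-normalised replicate fold changes, kanamycin over none.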

Row | Sequence | self-splicing fitness (ln) (30 °C) | self-splicing fitness (ln) (37 °C)
1 | AGCUAGCAAUAUUACGAGUC | -3.89 ± 0.22 | -2.08 ± 0.19
2 | AGCUAGCAAUAUUACGAUCC | 0.0246 ± 0.14 | 0.559 ± 0.16
3 | AGCUAGCAAUAUUACGAUCU | 0.121 ± 0.12 | 0.532 ± 0.13
4 | AGCUAGCAAUAUUACGAUUC | -1.8 ± 0.11 | -0.417 ± 0.15
5 | AGCUAGCAAUAUUACGAUUG | -2.89 ± 0.24 | -1.98 ± 0.23
6 | AGCUAGCAAUAUUACGCAAA | -1.8 ± 0.18 | -2.24 ± 0.24
7 | AGCUAGCAAUAUUACGCAUC | -2.95 ± 0.36 | –
8 | AGCUAGCAAUAUUACGCAUG | -2.12 ± 0.16 | -1.06 ± 0.12
9 | AGCUAGCAAUAUUACGCCAA | -1.7 ± 0.27 | -1.75 ± 0.2
10 | AGCUAGCAAUAUUACGCCCA | -1.5 ± 0.21 | -0.441 ± 0.35
11 | AGCUAGCAAUAUUACGCCCC | -0.339 ± 0.24 | -0.157 ± 0.34
12 | AGCUAGCAAUAUUACGCGAC | -3.48 ± 0.47 | -2.38 ± 0.43
13 | AGCUAGCAAUAUUACGCUCA | -1.67 ± 0.25 | -2.11 ± 0.37
14 | AGCUAGCAAUAUUACGGACG | -0.719 ± 0.075 | -0.105 ± 0.1
15 | AGCUAGCAAUAUUACGGACU | 8.42e-05 ± 0.097 | 0.516 ± 0.12
16 | AGCUAGCAAUAUUACGGCAG | -1.19 ± 0.1 | -1.08 ± 0.12
17 | AGCUAGCAAUAUUACGGCGC | -1.1 ± 0.093 | -0.362 ± 0.14
18 | AGCUAGCAAUAUUACGGCGG | -1.13 ± 0.12 | -0.547 ± 0.14
19 | AGCUAGCAAUAUUACGGUUA | -0.191 ± 0.067 | 0.383 ± 0.073
20 | AGCUAGCAAUAUUACGUAGG | -3.29 ± 0.13 | -1.27 ± 0.13
21 | AGCUAGCAAUAUUACGUGCA | -0.188 ± 0.069 | 0.247 ± 0.096
22 | AGGAAGCAAUAUUACGACAG | -2.74 ± 0.19 | -1.64 ± 0.18
23 | AGGAAGCAAUAUUACGACAU | -0.63 ± 0.014 | -0.543 ± 0.033
24 | AGGAAGCAAUAUUACGACGG | -1.98 ± 0.17 | -0.95 ± 0.23
25 | AGGAAGCAAUAUUACGAGAG | -3.03 ± 0.14 | -2.29 ± 0.17

Row | Sequence | self-splicing fitness (ln) (30 °C) | self-splicing fitness (ln) (37 °C)
26 | AGGAAGCAAUAUUACGAUUA | -1.47 ± 0.08 | -1.21 ± 0.069
27 | AGGAAGCAAUAUUACGAUUC | -1.41 ± 0.15 | -2.53 ± 0.18
28 | AGGAAGCAAUAUUACGCACA | -0.546 ± 0.13 | 0.104 ± 0.19
29 | AGGAAGCAAUAUUACGCCAC | -2.13 ± 0.24 | -2.64 ± 0.41
30 | AGGAAGCAAUAUUACGCGGC | – | -1.98 ± 0.44
31 | AGGAAGCAAUAUUACGCUAA | -1.19 ± 0.13 | -1.89 ± 0.27
32 | AGGAAGCAAUAUUACGCUCA | -0.332 ± 0.13 | -0.339 ± 0.16
33 | AGGAAGCAAUAUUACGCUGG | -3.46 ± 0.38 | -1.08 ± 0.27
34 | AGGAAGCAAUAUUACGCUUC | -2.44 ± 0.28 | –
35 | AGGAAGCAAUAUUACGGAGC | -2.78 ± 0.21 | -1.61 ± 0.3
36 | AGGAAGCAAUAUUACGGGCA | -1.55 ± 0.21 | -1.13 ± 0.23
37 | AGGAAGCAAUAUUACGUAGA | -1.86 ± 0.099 | -2.42 ± 0.15
38 | AGGAAGCAAUAUUACGUGGA | -3.05 ± 0.19 | -1.16 ± 0.13
39 | AGGAAGCAAUAUUACGUGGC | – | -3.3 ± 0.43
40 | AGGAAGCAAUAUUACGUGUU | -3.8 ± 0.21 | -0.935 ± 0.14
41 | AGGAAGCAAUAUUACGUUAC | -2.66 ± 0.14 | -3.18 ± 0.28
42 | AGGAAGCAAUAUUACGUUAU | -3.44 ± 0.18 | -1.6 ± 0.17
43 | AGGAAGCAAUAUUACGUUCC | -2.96 ± 0.39 | -2.59 ± 0.48
44 | AGGCAGCAAUAUUACGAAGG | -1.9 ± 0.22 | -1.56 ± 0.27
45 | AGGCAGCAAUAUUACGACGG | -2.49 ± 0.16 | -0.746 ± 0.22
46 | AGGCAGCAAUAUUACGAGCC | -2 ± 0.14 | -1.4 ± 0.21
47 | AGGCAGCAAUAUUACGAGUC | -2.29 ± 0.14 | -2.34 ± 0.2
48 | AGGCAGCAAUAUUACGCAUC | -3.99 ± 0.19 | -1.04 ± 0.11
49 | AGGCAGCAAUAUUACGCGAG | -2.49 ± 0.13 | -1.12 ± 0.13
50 | AGGCAGCAAUAUUACGGAAU | -1.67 ± 0.057 | -0.844 ± 0.084

Row | Sequence | self-splicing fitness (ln) (30 °C) | self-splicing fitness (ln) (37 °C)
51 | AGGCAGCAAUAUUACGGAUC | -2.19 ± 0.1 | -0.495 ± 0.099
52 | AGGCAGCAAUAUUACGGAUU | -1.08 ± 0.077 | 0.356 ± 0.098
53 | AGGCAGCAAUAUUACGGCUC | -0.958 ± 0.17 | -0.371 ± 0.19
54 | AGGCAGCAAUAUUACGGGUU | -3.33 ± 0.22 | -1.01 ± 0.12
55 | AGGCAGCAAUAUUACGGUCC | -1.61 ± 0.15 | -1.64 ± 0.26
56 | AGGCAGCAAUAUUACGGUGA | -1.37 ± 0.14 | -0.711 ± 0.11
57 | AGGCAGCAAUAUUACGGUGG | -3.05 ± 0.16 | -2.88 ± 0.23
58 | AGGCAGCAAUAUUACGUAGA | -2.33 ± 0.15 | -0.171 ± 0.11
59 | AGGCAGCAAUAUUACGUAUA | -3.08 ± 0.15 | -1.56 ± 0.12
60 | AGGCAGCAAUAUUACGUGCU | -2.46 ± 0.12 | -1.5 ± 0.1
61 | AGGCAGCAAUAUUACGUUGC | -4.18 ± 0.36 | -2.13 ± 0.29
62 | AGGGAGCAAUAUUACGAUAA | – | -2.23 ± 0.42
63 | AGGGAGCAAUAUUACGAUCG | -2.68 ± 0.27 | -2.19 ± 0.46
64 | AGGGAGCAAUAUUACGAUGG | – | -1.29 ± 0.32
65 | AGGGAGCAAUAUUACGCAGU | -2.41 ± 0.47 | -1.44 ± 0.33
66 | AGGGAGCAAUAUUACGCCAA | – | -2.67 ± 0.38
67 | AGGGAGCAAUAUUACGCGAA | -1.94 ± 0.4 | -1.48 ± 0.29
68 | AGGGAGCAAUAUUACGCUCG | -2.31 ± 0.27 | -2.12 ± 0.3
69 | AGGGAGCAAUAUUACGGCAC | – | -1.77 ± 0.42
70 | AGGGAGCAAUAUUACGUACU | -1.74 ± 0.26 | -0.673 ± 0.35
71 | AGGGAGCAAUAUUACGUCGC | -1.42 ± 0.34 | –
72 | AGGGAGCAAUAUUACGUCGG | – | -1.52 ± 0.38
73 | AGGGAGCAAUAUUACGUGAA | -3.18 ± 0.32 | -2.53 ± 0.3
74 | AGGGAGCAAUAUUACGUUUG | -3.56 ± 0.39 | -2.66 ± 0.35
75 | AGGUAGCAAUAUUACGAAUC | -3.462 ± 0.031 | -2.2 ± 0.041

Row | Sequence | self-splicing fitness (ln) (30 °C) | self-splicing fitness (ln) (37 °C)
76 | AGGUAGCAAUAUUACGAAUU | -1.85 ± 0.017 | -0.996 ± 0.035
77 | AGGUAGCAAUAUUACGAGGA | -3.39 ± 0.034 | -2.43 ± 0.041
78 | AGGUAGCAAUAUUACGAGUA | -2.415 ± 0.023 | -1.52 ± 0.035
79 | AGGUAGCAAUAUUACGAUUG | -3.575 ± 0.026 | -2.44 ± 0.04
80 | AGGUAGCAAUAUUACGCAAG | -2.25 ± 0.018 | -1.26 ± 0.034
81 | AGGUAGCAAUAUUACGCCCA | 0.15 ± 0.02 | -0.0344 ± 0.039
82 | AGGUAGCAAUAUUACGCCUC | -3.88 ± 0.05 | -3.34 ± 0.068
83 | AGGUAGCAAUAUUACGCCUG | -0.743 ± 0.017 | -0.212 ± 0.035
84 | AGGUAGCAAUAUUACGCGAG | -1.32 ± 0.014 | -0.6 ± 0.032
85 | AGGUAGCAAUAUUACGCGUU | -1.888 ± 0.015 | -0.903 ± 0.033
86 | AGGUAGCAAUAUUACGCUAA | -1.66 ± 0.018 | -0.802 ± 0.035
87 | AGGUAGCAAUAUUACGCUAG | -4.002 ± 0.038 | -2.89 ± 0.046
88 | AGGUAGCAAUAUUACGGACG | -1.46 ± 0.015 | -0.546 ± 0.034
89 | AGGUAGCAAUAUUACGGCAC | -0.781 ± 0.017 | -0.277 ± 0.035
90 | AGGUAGCAAUAUUACGGCCA | 0.159 ± 0.018 | 0.165 ± 0.037
91 | AGGUAGCAAUAUUACGGCGC | -0.0707 ± 0.015 | 0.163 ± 0.033
92 | AGGUAGCAAUAUUACGGGGG | -3.715 ± 0.031 | -2.94 ± 0.044
93 | AGGUAGCAAUAUUACGGGUG | -3.141 ± 0.021 | -1.99 ± 0.036
94 | AGGUAGCAAUAUUACGGUAU | -1.957 ± 0.015 | -1.07 ± 0.033
95 | AGGUAGCAAUAUUACGUAAC | -2.092 ± 0.019 | -1.18 ± 0.035
96 | AGGUAGCAAUAUUACGUAUU | -2.78 ± 0.018 | -1.45 ± 0.035
97 | AGGUAGCAAUAUUACGUCAC | -3.764 ± 0.036 | -2.23 ± 0.042
98 | AGGUAGCAAUAUUACGUCCA | -0.144 ± 0.015 | -0.214 ± 0.035
